Positions of bridges follow the written chain, without caps; N, C: chain ends. Non-standard residues stand in square brackets, D forms with d. Residues, ends and D or L forms follow the SMILES beside them. *: point of attachment. NH(β-GlcNAc) = CC(=O)N[C@@H]1[C@@H](O)[C@H](O)[C@@H](CO)O[C@H]1N*; Dap = NC[C@H](N)C(=O)O
Key:
[1] = tested on: human polymorphonuclear blood cells; test: Immunohistochemistry of TGF-beta and NF-kB in polymorphonuclear blood cells; format: cell-based; conditions: incubated with PHF; Substance P (1 μM) alone; 48 hours
Source text: (§1) Heparinised blood from healthy donors was centrifuged, separating the different components thereof. Red blood cells remain in the bottom of the tube. Above them, there is a small whitish layer formed by white blood cells and above, in the upper part of the tube, blood plasma. The white blood cell layer was distributed in a culture plate of 24 wells, adding to each of them the same concentration of blood plasma supplemented with 1% of antibiotics-antimicotics (Invitrogen). About 1000 cells (PHF) from the skin dermis, obtained as described above, were added to each well.
(§2) To assess immunostaining, six serial sections were made of each block placed over slides for performing the immunohistochemistry technique for each marker. Therefore, the immunohistochemical assay was performed six times for each marker in each case. In each of the six sections, cell count was performed in 20 fields of high magnification (400×) using a microscope of Olympus brand (model CX31). In each field, the total cell number and the number of cells with immunostaining were counted, subsequently measuring the percentage of cells with this immunostaining. […]
(§3) The modification of the peritumoural microenvironment by treatment with anti-NK1, NK2 and/or NK3 antibodies has also been analysed determining the involvement of mononuclear and polymorphonuclear blood cells in this tumoural microenvironment. […]

[2] = tested on: human mononuclear blood cells; test: Immunohistochemistry of TGF-beta and NF-kB in mononuclear blood cells; format: cell-based; conditions: incubated with PHF; Substance P (1 μM) alone; 48 hours
Source text: as §1, §2, §3

[3] = tested on: primary human fibroblasts (PHF); test: Immunohistochemistry of tumour microenvironment markers in primary human fibroblasts; format: cell-based
Protocol: A sample of each of the cultures of the cell lines was centrifuged (5 minutes at 1,500 rpm) and the pellet obtained was dehydrated by treatment at growing concentrations of ethanol and finally in xylol. Then these dehydrated samples were included in paraffin creating a block of cells. These paraffin blocks were cut in a microtome at a thickness of 5 micra and deparaffinised by sinking in xylol, to be subsequently hydrated through a number of solutions containing decreasing concentrations of ethanol and be finally sank in water. Then, these samples were subject to treatment in a pressure cooker in citrate buffer 10× at pH 6.0, to obtain a higher exposure of antigens. Subsequently, the samples were cooled at room temperature for 10 minutes. The endogenous peroxidase activity was blocked with 3% hydrogen peroxide for 30 minutes at room temperature. After washing the samples with 0.05 M of Tris buffer, they were incubated with swine non-immune serum at 10% for 30 minutes at room temperature. […]
PHF were obtained and purified from samples obtained from the skin dermis as described in De Bari et al. (De Bari et al., 2001). In brief, small pieces of skin dermis were digested in a hyaluronidase solution (Sigma-Aldrich, St. Louis, Mo., US) at a concentration of 1 mg/mL for 15 minutes at 37° C. and subsequently treated with 6 mg/mL of type IV collagenase (Invitrogen) for 2 hours at 37° C. Then the cells were washed, resuspended in DMEM culture medium with a high concentration of glucose (Dulbecco's Modified Eagle's Medium, Invitrogen) supplemented with 1% of antibiotics-antimicotics (Invitrogen) and with 1% of sodium pyruvate (Invitrogen), and sown in 6-well culture plaques at a concentration of 10,000 cells per square centimetre. When the cells reached confluence, the adherent cells were separated using 0.5% sterile trypsin (Invitrogen) and were used between runs 3 and 9. For stimulation of substance P and exposure to anti-NK1, anti-NK2 and anti-NK3 antibodies, PHF were sown in 24-well plaques at a concentration of 25,000 cells per well.
For the purpose of analysing the expression of these cell markers in PHF cultures in the presence of the NK1, NK2 and NK3 receptor agonist and in the presence of anti-NK1, NK2 or NK3 antibodies, these cells were cultured in the presence of substance P (NK1, NK2 and NK3 receptor agonist) at a concentration of 1 μM (product no. S6883; Sigma-Aldrich). In other wells and simultaneously these cells were cultured with substance P at the same concentration and simultaneously together with anti-NK1, anti-NK2 or anti-NK3 antibodies (Sigma-Aldrich) at a 1/100 concentration. After 48 hours of culture, the cells were recollected and cell blocks were built for immunohistochemistry assays, as explained in example 1. In the immunohistochemistry assays, the expression of the following markers was assayed: TGF-alpha (SAB4502953), TGF-beta 1 (SAB4502954), TGF-beta 2 (SAB4502956), TGF-beta 3 (SAB4502957), SPARC(HPA002989) MMP-3 (HPA007875); MMP-7 (SAB4501894), MMP-9 (SAB4501896), MMP-11 (SAB4501898), MMP-13 (SAB4501900) and MMP-14 (SAB4501901), by specific antibodies against them. For performing these immunohistochemistry assays, all antibodies were mouse polyclonal antibodies obtained from Sigma Aldrich, used at a 1/1000 concentration. The immunohistochemistry techniques were performed as described in Example 1. The results are summarised in Table 2, that gives the type of marker and the mean percentage of cells with immunostaining for this marker.
as §2, with “CX31).” for “CX31). In each field, the total cell number and the number of cells with immunostaining were counted, subsequently measuring the percentage of cells with this immunostaining.”

[4] = tested on: human breast cancer cells; conditions: Singh D et al., 2000; Bigioni M. et al., 2005; cited from earlier work
[5] = target: NK1 receptor (human) (UniProt P25103); test: cell-based or functional assay
UniProt P25103, sequence (P25103 whole entry): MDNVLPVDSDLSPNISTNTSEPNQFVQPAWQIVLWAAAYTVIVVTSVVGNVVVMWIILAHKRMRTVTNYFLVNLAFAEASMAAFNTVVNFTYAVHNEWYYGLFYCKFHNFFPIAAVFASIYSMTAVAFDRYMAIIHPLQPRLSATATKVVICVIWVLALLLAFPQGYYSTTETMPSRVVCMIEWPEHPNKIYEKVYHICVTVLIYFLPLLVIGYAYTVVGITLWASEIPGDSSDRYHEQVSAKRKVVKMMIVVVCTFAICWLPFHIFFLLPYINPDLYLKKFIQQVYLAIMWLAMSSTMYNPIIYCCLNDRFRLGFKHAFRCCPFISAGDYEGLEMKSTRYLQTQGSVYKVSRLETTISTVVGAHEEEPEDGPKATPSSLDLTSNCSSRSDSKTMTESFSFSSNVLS

[6] = target: NK2 receptor (human) (UniProt P21452); test: cell-based or functional assay
UniProt P21452, sequence (P21452 whole entry): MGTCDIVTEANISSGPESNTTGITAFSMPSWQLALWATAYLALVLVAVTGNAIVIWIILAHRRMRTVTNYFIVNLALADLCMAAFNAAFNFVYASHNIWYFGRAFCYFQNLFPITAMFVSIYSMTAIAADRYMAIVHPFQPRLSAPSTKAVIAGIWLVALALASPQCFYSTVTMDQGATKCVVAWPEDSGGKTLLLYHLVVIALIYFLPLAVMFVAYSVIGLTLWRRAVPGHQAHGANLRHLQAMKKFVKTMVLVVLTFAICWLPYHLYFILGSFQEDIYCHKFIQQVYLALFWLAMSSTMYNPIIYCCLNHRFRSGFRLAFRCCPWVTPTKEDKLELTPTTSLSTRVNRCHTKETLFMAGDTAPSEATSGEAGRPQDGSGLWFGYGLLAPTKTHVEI

[7] = target: NK3 receptor (human) (UniProt P29371); test: cell-based or functional assay
UniProt P29371, sequence (P29371 whole entry): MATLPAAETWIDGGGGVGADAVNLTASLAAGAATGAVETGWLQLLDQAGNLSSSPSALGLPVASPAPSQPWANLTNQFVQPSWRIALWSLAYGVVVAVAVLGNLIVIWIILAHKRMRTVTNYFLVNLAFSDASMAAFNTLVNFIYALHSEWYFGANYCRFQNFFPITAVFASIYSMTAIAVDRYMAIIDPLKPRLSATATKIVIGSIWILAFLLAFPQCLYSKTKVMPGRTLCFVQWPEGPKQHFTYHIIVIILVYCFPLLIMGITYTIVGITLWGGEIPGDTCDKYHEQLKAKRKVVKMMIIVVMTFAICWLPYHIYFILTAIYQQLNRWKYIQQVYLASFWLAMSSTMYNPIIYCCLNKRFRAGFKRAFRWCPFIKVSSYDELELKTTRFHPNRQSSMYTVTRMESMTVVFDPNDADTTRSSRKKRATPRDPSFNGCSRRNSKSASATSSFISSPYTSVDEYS

[8] = target: NK1, NK2 and NK3 receptors; test: cell-based or functional assay
[9] = PHF, Substance P (1 μM) alone, 48 hours

## Substance P
[1]
  Percentage of polymorphonuclear cells with expression for NF-kB: 17.5%
  Percentage of polymorphonuclear cells with expression for TGF-beta: 36.8%
[2]
  Percentage of mononuclear cells with expression for NF-kB: 25.7%
  Percentage of mononuclear cells with expression for TGF-beta: 16.4%
[3]; PHF cell cultures treated only with substance P
  Immunostaining for the markers tested (TGF-alpha, TGF-beta 1-3, SPARC, MMPs): presence of all markers tested
[3]; [9]
  Percentage of cells with expression for MMP-3: 33.9%
  Percentage of cells with expression for MMP-7: 46.2%
  Percentage of cells with expression for MMP-9: 35.5%
  Percentage of cells with expression for MMP-11: 7.8%
  Percentage of cells with expression for MMP-13: 17.1%
  Percentage of cells with expression for MMP-14: 47.3%
  Percentage of cells with expression for SPARC: 16%
  Percentage of cells with expression for TGF-alpha: 16.5%
  Percentage of cells with expression for TGF-beta 1: 18.4%
  Percentage of cells with expression for TGF-beta 2: 24.6%
  Percentage of cells with expression for TGF-beta 3: 23.1%

## Cc1ccc(CC(=O)N(C)[C@H](Cc2ccc3ccccc3c2)C(=O)N[C@@H]2CCCC[C@@H]2NC(=O)c2c[nH]c3ccccc23)cc1 [MEN 11467]
[4]
  Blocking cell proliferation: efficacy in blocking cell proliferation

## anti-NK1 antibody (Sigma-Aldrich, product number S8305)
[5]
  % of fibroblast cells with expression for MMP-3; anti-NK1 (1/100) and Substance P (1 µM): 0%
  % of fibroblast cells with expression for MMP-7; anti-NK1 (1/100) and Substance P (1 µM): 0%
  % of fibroblast cells with expression for MMP-9; anti-NK1 (1/100) and Substance P (1 µM): 0%
  % of fibroblast cells with expression for MMP-11; anti-NK1 (1/100) and Substance P (1 µM): 0%
  % of fibroblast cells with expression for MMP-13; anti-NK1 (1/100) and Substance P (1 µM): 0%
  % of fibroblast cells with expression for MMP-14; anti-NK1 (1/100) and Substance P (1 µM): 0%
  % of fibroblast cells with expression for SPARC; anti-NK1 (1/100) and Substance P (1 µM): 0%
  % of fibroblast cells with expression for TGF-alpha; anti-NK1 (1/100) and Substance P (1 µM): 0%
  % of fibroblast cells with expression for TGF-beta 1; anti-NK1 (1/100) and Substance P (1 µM): 0%
  % of fibroblast cells with expression for TGF-beta 2; anti-NK1 (1/100) and Substance P (1 µM): 0%
  % of fibroblast cells with expression for TGF-beta 3; anti-NK1 (1/100) and Substance P (1 µM): 0%
  % of mononuclear cells with expression for NF-kB; anti-NK1 (1/100) and Substance P (1 µM): 0%
  % of mononuclear cells with expression for TGF-beta; anti-NK1 (1/100) and Substance P (1 µM): 0%
  % of polymorphonuclear cells with expression for NF-kB; anti-NK1 (1/100): 0%
  % of polymorphonuclear cells with expression for TGF-beta; anti-NK1 (1/100): 0%

## CC(=O)NC1(c2ccccc2)CCN(CC[C@H](CN(C)C(=O)c2ccccc2)c2ccc(Cl)c(Cl)c2)CC1 [SR 48968]
[4]
  Blocking cell proliferation: efficacy in blocking cell proliferation

## anti-NK2 antibody (Sigma-Aldrich, product number HPA012084)
[6]
  % of fibroblast cells with expression for MMP-3; anti-NK2 (1/100) and Substance P (1 µM): 0%
  % of fibroblast cells with expression for MMP-7; anti-NK2 (1/100) and Substance P (1 µM): 0%
  % of fibroblast cells with expression for MMP-9; anti-NK2 (1/100) and Substance P (1 µM): 0%
  % of fibroblast cells with expression for MMP-11; anti-NK2 (1/100) and Substance P (1 µM): 0%
  % of fibroblast cells with expression for MMP-13; anti-NK2 (1/100) and Substance P (1 µM): 0%
  % of fibroblast cells with expression for MMP-14; anti-NK2 (1/100) and Substance P (1 µM): 0%
  % of fibroblast cells with expression for SPARC; anti-NK2 (1/100) and Substance P (1 µM): 0%
  % of fibroblast cells with expression for TGF-alpha; anti-NK2 (1/100) and Substance P (1 µM): 0%
  % of fibroblast cells with expression for TGF-beta 1; anti-NK2 (1/100) and Substance P (1 µM): 0%
  % of fibroblast cells with expression for TGF-beta 2; anti-NK2 (1/100) and Substance P (1 µM): 0%
  % of fibroblast cells with expression for TGF-beta 3; anti-NK2 (1/100) and Substance P (1 µM): 0%
  % of mononuclear cells with expression for NF-kB; anti-NK2 (1/100) and Substance P (1 µM): 0%
  % of mononuclear cells with expression for TGF-beta; anti-NK2 (1/100) and Substance P (1 µM): 0%
  % of polymorphonuclear cells with expression for NF-kB; anti-NK2 (1/100): 0%
  % of polymorphonuclear cells with expression for TGF-beta; anti-NK2 (1/100): 0%

## anti-NK3 antibody (Sigma-Aldrich, product number HPA009418)
[7]
  % of fibroblast cells with expression for MMP-3; anti-NK3 (1/100) and Substance P (1 µM): 0%
  % of fibroblast cells with expression for MMP-7; anti-NK3 (1/100) and Substance P (1 µM): 0%
  % of fibroblast cells with expression for MMP-9; anti-NK3 (1/100) and Substance P (1 µM): 0%
  % of fibroblast cells with expression for MMP-11; anti-NK3 (1/100) and Substance P (1 µM): 0%
  % of fibroblast cells with expression for MMP-13; anti-NK3 (1/100) and Substance P (1 µM): 0%
  % of fibroblast cells with expression for MMP-14; anti-NK3 (1/100) and Substance P (1 µM): 0%
  % of fibroblast cells with expression for SPARC; anti-NK3 (1/100) and Substance P (1 µM): 0%
  % of fibroblast cells with expression for TGF-alpha; anti-NK3 (1/100) and Substance P (1 µM): 0%
  % of fibroblast cells with expression for TGF-beta 1; anti-NK3 (1/100) and Substance P (1 µM): 0%
  % of fibroblast cells with expression for TGF-beta 2; anti-NK3 (1/100) and Substance P (1 µM): 0%
  % of fibroblast cells with expression for TGF-beta 3; anti-NK3 (1/100) and Substance P (1 µM): 0%
  % of mononuclear cells with expression for NF-kB; anti-NK3 (1/100) and Substance P (1 µM): 0%
  % of mononuclear cells with expression for TGF-beta; anti-NK3 (1/100) and Substance P (1 µM): 0%
  % of polymorphonuclear cells with expression for NF-kB; anti-NK3 (1/100): 0%
  % of polymorphonuclear cells with expression for TGF-beta; anti-NK3 (1/100): 0%

## CC(=O)N[C@@H]1[C@@H](O)[C@H](O)[C@@H](CO)O[C@H]1NC(=O)C[C@@H]1NC(=O)[C@H](CC(C)C)NC(=O)[C@@H]2CNC(=O)C[C@H](NC1=O)C(=O)N[C@@H](Cc1c[nH]c3ccccc13)C(=O)N[C@@H](Cc1ccccc1)C(=O)N2 [MEN 11420, nepadutant] (cyclo(D(NH(β-GlcNAc))DWF[Dap]L); lactam 2-5)
[4]
  Blocking cell proliferation: efficacy in blocking cell proliferation

B1: Substance P (product no. S6883; Sigma-Aldrich) (peptide, UniProt P20366 58-68, looked up)
peptide: RPKPQQFFGLM
[8]
  % of fibroblast cells with expression for MMP-3; Substance P (1 µM): 33.9%
  % of fibroblast cells with expression for MMP-7; Substance P (1 µM): 46.2%
  % of fibroblast cells with expression for MMP-9; Substance P (1 µM): 35.5%
  % of fibroblast cells with expression for MMP-11; Substance P (1 µM): 7.8%
  % of fibroblast cells with expression for MMP-13; Substance P (1 µM): 17.1%
  % of fibroblast cells with expression for MMP-14; Substance P (1 µM): 47.3%
  % of fibroblast cells with expression for SPARC; Substance P (1 µM): 16%
  % of fibroblast cells with expression for TGF-alpha; Substance P (1 µM): 16.5%
  % of fibroblast cells with expression for TGF-beta 1; Substance P (1 µM): 18.4%
  % of fibroblast cells with expression for TGF-beta 2; Substance P (1 µM): 24.6%
  % of fibroblast cells with expression for TGF-beta 3; Substance P (1 µM): 23.1%
  % of mononuclear cells with expression for NF-kB; Substance P (1 µM): 25.7%
  % of mononuclear cells with expression for TGF-beta; Substance P (1 µM): 16.4%
  % of polymorphonuclear cells with expression for NF-kB; Substance P (1 µM): 17.5%
  % of polymorphonuclear cells with expression for TGF-beta; Substance P (1 µM): 36.8%
